# Laboratory results reported in the DeepSol protein solubility set.
# Experiment: soluble on expression in E. coli; label from the status in PepcDB or PDB records
row,Sequence,soluble on expression in E. coli
1,MAGDPMYRVGIDVGGTNTDAVVLQDKTVLAGVKASTTEDVTSGVIEALEKVIDASGIDRARIGAVMIGTTHFTNAVIERRHMDEVAAIRIGLPSGAGLPPMVDWPDDLKEIVGNHGYQVRGGYEFDGREISPLDEDEIVRIAADIRAKALKAAAVTCVFSGINDAMEVRAKEILQDRCPGLPVVMSKDIGRHGLLARESAAIMNASLLSLADRTVAAFGEALKAAGITCPFYITQNDGTLMAADVVRGFPVLTFASGPTNSMRGAAFLTGLKDAVVVDVGGTTSDVGSLSHGFPRQASTTVDIGGVRTNFRMPDVFSIGLGGGSMVVNGDHGLTVGPKSVGYRVRRDALCFGGSTLTATDIAVASGKADVGEKALVSSLDKRLVDAAVNKINDMLEACVERSRISSSPVPVIAVGGGSILMPDRIGNLDVIRPENFAVANAVGAAIAQISGETDRVFSLIDGRTRESALAEAEAEAREKAIAAGAIAETLEVIEREDMPLAYLPGNATRIHVKVVGEMGANHGAAALEHHHHHH,not soluble
2,MAGDPNSMKFMSGKFCVLCGKQNVDLIDSLCVDCYVKSKKLIETPKRVTGKYCKICGAQWIRGKWIRTSATSLASVVEDIIARELGSKMRIDKNVDEFAFDIKSIWKDPSGNSFATIEFRGKVRGKSFSQEAVISLEMERELCDSCFRKKTRYYEAIVQLRSKGKIGVDDKKRAFFESFFSTSIVDNISDVIEGREGVDYYFMSKSVARKLVSMISSIVDVEVNESYQNEKMKNGKREAKLVISLRILEHHHHHH,not soluble
3,MAGDPNSMPVLSIIACGMLEDELVHVLIRDCEIRQLIVVENNNISGFLRKLRSGGLVPRVISLDRVPMLLETGFSPGFKKISKMLMHFHFFRKMNEKIESGAGIKIDVVINLLRLGLHVDLELLKSEVYKNVREMAKFSDGILIFYGTCGHVLGGLERDFADLECPLFFLKDSSGEIVEDCISAALGGNDAYAGAMLECRGKGTIYLTPMWASSWKMLEKESGNRDLNNRYLKNSRYCLAAKIDSGLLYDPYFDRNVEDFALTFGMKIINMSGSSEVAEKSYLAARKAVLRKTAAALEHHHHHH,not soluble
4,MAGEHIKVIYFDGRGRAESIRMTLVAAGVDYEDERISFQDWPKIKPTIPGGRLPAVKVTDDHGHVKWMLESLAIARYMAKKHHMMGETDEEYYSVEKLIGQAEDVEHEYHKTLMKPQEEKEKITKEILNGKVPVLFNMICESLKGSTGKLAVGDKVTLADLVLIAVIDHVTDLDKGFLTGKYPEIHKHRENLLASSPRLAKYLSNRPATPF,soluble
5,MAGHSHWAQIKHKKAKVDAQRGKLFSKLIREIIVATRLGGPNPEFNPRLRTAIEQAKKANMPWENIERAIKKGAGELEGEQFEEVIYEGYAPGGVAVMVLATTDNRNRTTSEVRHVFTKHGGNLGASGCVSYLFERKGYIEVPAKEVSEEELLEKAIEVGAEDVQPGEEVHIIYTVPEELYEVKENLEKLGVPIEKAQITWKPISTVQINDEETAQKVIKLLNALEELDDVQQVIANFEIPEEILQKVGLEHHHHHH,not soluble
6,MAGHVNGTCAPVIPKVGDEEDGVGQLVANLKEKGTNFVLLKKTPQILELQTILKDRFCGKINDFRYFCRKNLLILNKLLFCLKKRFSWNLDFKNPLIHKFSGQKRHFKRFCQIFSDFESKFRYFHKFPGPKRSTNHSDFVFNADRLMRLVIEECLNHLPFTEHTVTTPTGFKYEGIQFNRGNCGVSLCRSGEAMEVSLRQCCRCIRIGKILIGDEQKVLYARLLPDITSRRVLLLYPTIGSGTTVCKAIEVLKEARVPDENIYLVSLFISPTGLKNITRKYPYITVVASDITSLYPNHFSTSYFGAV,not soluble
7,MAGLVDRVSGARLDPAAEAEIRYLEAMIARLEAGEEDPEDFRVFRLKNGIYGIRGRPEHHMIRIKLPVGRITPEGLRVLADVAERYAENRLAHVTTRQAVQLHHVHRRDVPKVLRAVNAVGLTTREACGHSIRAITCCPYAGVSPEEPFDVTPYAEAAYRYFLRHPVGQNLPRKFKIAFEGCAADHARTPIHDIGVVAALEGGKRGFRVYVGGGLGAAPMSAELLEAFTPEEDLLPTMLAIVRLFDRYGNRKVLTQARLKFLVKKWGIAAFREAVREERRLVKLTASGEDLEAWAPPPEPEPPRLPSPPKKPFSFAPGFDAWRRTNLFKQKQEGFYTVTVRLPLGDITPEGLRALAAIAETYAAEVRSAISQNLLLRFVPEEALGGLYEALLEAGLALPEAHTLLDITRCPGADTCNLAITRSRGLAQALEAHLATLPLAQDPGAKAIGVKISGCPNSCGQHHIADIGFYGSSRKVGEREVPHYVLLLGGRTREGEARFGQVVGRLPARRVPEAVERILKRYLEERQNGESFQAYLDRVGAASFKPLLQELQEVPPYEEAPEFYQDLGAEGEAFSVQLGRGECAV,soluble
8,MAGSDPAAPAAPAAAAPDTVKILIAGGFGVGKTTMVGSVSEIAPLRTEEPLTAAGLDVDDLDGIAEKDATTVALDFGRITIGSELVLYLFGTPGQQRFWFMWNDLAIGALGAVVLIDVRRPESSFAAVDFFERRGIPFVIGVNGFHGLHPYTPEEIREALALPERAQVLLCDARERESCRDVLIALIDQLIAARLEHHHHHH,not soluble
9,MAHHHHHHMAALKNKIHRIGKRKGATLKDVSAWRWIKTAARHFKQEGKIFVPNCTEIMKSSHGRERAPQNPDWYYIRCAAVLRAIYLRPGVGYGGLSKRFGNKKNYGSRPEHTVTSSTGPLHWACKSLTKLGLVEPGAQSGQRLTRKGHKFADSLAFQVQIRKFGAST,soluble
10,MAHHHHHHMADQIYHKLINENIKMLCNDLLPNEKKDEKKKEYYNNMNINCSSKCEELCNNINDRLQKIKDIVHLRSTKANGILIETLNYIKEYIKEIEKYIQIFNKLIYEENRAYLFIEEIFNTLENQNQNIQKIYNICSKNIVITKNNNELILKNPKACSSLSYEFVNNLMNSGQQKNNNNNNNKKEQIVQQHNIENQGANYLN,not soluble
11,MAHHHHHHMADWQGWYQRMLDVHNRNVSLRCRICDLQRLDGNGVQFVDMQTERRLRILAQHRVGMGVLKLDADKYEDQADNVTFGTTKLSELLADARKAQLGEEYWPSVELKVRKPSGQSKAHYSLIDNERIEKRSRELYEKYRDAKKRSLFVTPMETWLEVKGMQVRKSVDNADEDGYTLDALQDMMDGDDEDKV,not soluble
12,MAHHHHHHMAHGAAQCTLAAPGCVYLTPEQEEQLVDRLYTQSLLQKEATLAELDARYYPVTASQTISQETLQKSVQRQVDVEMERRQQRRKEMDAMAVAKAMGHASGSRAAASKKTVTAEETDVSVRRLYDDALAQKKARKAESERLYAFHPEDLKSAKMSKAALQESVNRMSKPKKTEFAVAEVNKIYGL,soluble
13,MAHHHHHHMAKEVTTNHCNNSKWWKGRPYAKIPDGPAQRQAAVTISAILATAEATRLKHDNLKSTAAQAHSLAITAIKDAFYGKGETEAGDAFAYTKAEKCGRTTATGTAGAAIVEDLICLCTKGGGGQTTECYTSGPADVGKNKVGGVKVIVNDMIDHCPNISAELHLKPALITRRIAAFYAELGRQDGKKQYNKKSKNRGSGCNWMCSARS,not soluble
14,MAHHHHHHMAKLLPPPFHGYIRKMFFPLRNAASASRKCCLHTHVQQKNGMMKTTPLISKRSYFTSLYDTKTEKTKLMNEMDDLYDHILTSNWNDSVHLVLNVSIWEGILNSIEDKVKLYEQDEDIMKKKKIINEIFDVLFILEDLRDHVNELLEQSSRASGLAGTHILASFKIENMNEHIEFLKTKYDELLLKYPLYKYQIDMVLGKGLALLRQKYNFEWRHMHNFFF,not soluble
15,MAHHHHHHMALIQTAHDACSRKVHCVRKGYLNDPFVSFFEKDHTIVNSPLMNRGTWLRTTAFENCVRGFATAAGQPIQVINFGAGMDTLYFRLKHSDPQFPVQKFMELDLADLVAEKERIIKRHSEMHSLVGSQYVLVSCDLYDAKGVAKALKEHLHGGTPTIMIAEMVFVYIEGSVTTNLLRTVMSDVIEPGTKTMLVTYDAIQPFDRFGKVMVENLQHFGADFKGIGDFPTPEAHAGRCSELGFKAVKSVTMKNLYLGVPRQIQIRLNKLEMIDDWEEWNLMHEHYCFVVASTEDAPLPKLF,not soluble
16,MAHHHHHHMANDDPKEPQPAVLNPEVDQQDTSVNGDDGDAERDGGKDVPVFTPAGARVEVHPLVLLSLVDHYARVNAKVSQKRRVAGLLLGRHLSHPGGIQVLDINNSFAVPFDEDPQNPDVWFLDTNYAEEMFLMFRRVHPKVRIVGWYSAGPSCAVQPNDMLLHLLIADRFSLNPVYCIVNTDPNNKGVPVLAYTTVHGRDGARSLEFRNIPTHLGAEEAEEIGIEHLLRDLTDSTITTLSAQVQERELSLDHLGRVLQSIEEYLNDVAEGTMPISEDVLSVLQEVISLQPHIYHLKTSTDMVRHANDQAIAMFIAAIGRCVCTLYDVIANRRRIAREIQEVRARRERSLKEKLGNEQHKAKEAATEESRKEGAAKN,not soluble
17,MAHHHHHHMAPSELHKLSYWEEVYQGEKENYEEANIQPEEWFEENCDKIINWMSNHFSEEEKKEQVAILDVGCGNGLFLHKLHQRGFGNLCGFDFSASAIELAKKLFVGCGGEGEEDSRINRGEEPTDVYVQVLDIYNIEDEIKENSKLKKKYKLINDKGTFDIFFMNDKAQEYFKHVSFFFQVDTIFCLTSCNACKEELLSIVNHFNETNGKFQLTLFDEIRYESITFGGVKGQIITTLIFACS,soluble
18,MAHHHHHHMAQRVHYRRHNHYNTKSNKVRPVRTPGGKLTIHVVKKKAGKPKCADCKTAIQGVKALRPADNYRARRKNRTVARAYGGSICARCIRERIMRAFLFEEQKCVRQVLKEKKKQEKKVKKVKKEKKKVNAKEVKKTATDNKKAKKVADKKKGK,not soluble
19,MAHHHHHHMARTLLLNIQHHQPDLGLSEVDIELGMLAGLLHDVGHGPFSHLFEDVVSRRCGIEFNHEDMSEKIARRVLRDLVPQTHVDVVVGLMRGKALLGITYGEIISNKRNGIDVDRLDYFIRDSMCCFGKPTVDVRVNRLFNSARIVCEEGQWQLGFEQKLALSLREIFTLRAKLHKNVYQHQVTKAIGHMIGDVIHAAAPHFRVGGHTLVECAQDETLFLKLGDWILEAIEASEAPHLAEAHAILHRLRTRDIYRVAYSSALDITMRAPMAAVDWPAAILEHAHPSFPLNADDFIAEVVVINQGKGTEDPLESVLFFNPKKPSQPLTRLKPAEDLKHGSPLFTPLQFEERTLMVFERRPTNGAVQRACERLNADPKYAAFFTDSLPFYNTK,soluble
20,MAHHHHHHMASFNSLGSGAGDSAEAVTRLQEVLRDICATERRQEKTWLNVQPCVLNAVKLLATTAQVYAERVRQLEDVLQRLQQYTTVLVRDREVKEERYRLDAAAHREEADELWKRLLRLEAQQQEPSLQIDQRASEAFKASCKVAVEARVAPLQQELQGLRHRLKALTLSRPYSSHYNRHVRSSSVASNSSALTMRDHYYAGSDGVAASQHHHHSAASSSSTSSLLSLASSTASSLDRHEQYPRRGRIETTSAPAFTPRALASATAAASPSTQRMMREVQRLRRQWQHFLQSVPAALAQGKGSCRAGLRRRDISGSPSRRLSRLTSKGGRRDLTGGLSDVTRANGEGMESIRGSSPQPFYVPAHHPPSSSPTDAVLPKYSSGPTRARSGARATESSTALPASGRRVRWYWLGDAHSHFSTAVRRAENDFAAAKPLSERPQPALSGVSPALPWTECHAFDGRTDCWYSLGTWPTHRRHLREVERAVEEGASRNSGDVSLGWLKWTLSLVSWPDTSTMLVHRAGIYMVRVCLVRHCASASLCSGAGRAESAGHDCGSGGALALCMNGVAVAGLREVVTHALLYTHPATSPADSAAPWWVTRGRSRSTCAYAGNYCSAVDGAAHSPACASPGGSPSRRRFHRDIADATQRQRPCCEPAQLHTNTLTACLFLPAGATLQVRCRGLHNTKTIHEAFCELEYVV,not soluble
21,MAHHHHHHMASLKERDTVAPAEIVAGVTASGPAGISAEELHKVLNSSEHASVVVVDVRNADEYASFHIPGSINKPFQELNFAQLADEVAAHTNHAAHMLVFVSAQSPDVDDLAAREYINEYEKSHAATPTKDSVRVLLGGLYTWSQIYSA,soluble
